The EC50 (read off the curve) is the concentration needed to bring the measured effect to its halfway point. Low readings indicate a more potent agent, high ones a less potent agent.

This is an account of results in patent US20210079067A1 (US Dept. of Health and Human Services, published 2021).

Experiment [1] concerns the target T1, Zaire ebolavirus full-length GP (Zaire ebolavirus, UniProt Q05320 33-650).
T1 sequence: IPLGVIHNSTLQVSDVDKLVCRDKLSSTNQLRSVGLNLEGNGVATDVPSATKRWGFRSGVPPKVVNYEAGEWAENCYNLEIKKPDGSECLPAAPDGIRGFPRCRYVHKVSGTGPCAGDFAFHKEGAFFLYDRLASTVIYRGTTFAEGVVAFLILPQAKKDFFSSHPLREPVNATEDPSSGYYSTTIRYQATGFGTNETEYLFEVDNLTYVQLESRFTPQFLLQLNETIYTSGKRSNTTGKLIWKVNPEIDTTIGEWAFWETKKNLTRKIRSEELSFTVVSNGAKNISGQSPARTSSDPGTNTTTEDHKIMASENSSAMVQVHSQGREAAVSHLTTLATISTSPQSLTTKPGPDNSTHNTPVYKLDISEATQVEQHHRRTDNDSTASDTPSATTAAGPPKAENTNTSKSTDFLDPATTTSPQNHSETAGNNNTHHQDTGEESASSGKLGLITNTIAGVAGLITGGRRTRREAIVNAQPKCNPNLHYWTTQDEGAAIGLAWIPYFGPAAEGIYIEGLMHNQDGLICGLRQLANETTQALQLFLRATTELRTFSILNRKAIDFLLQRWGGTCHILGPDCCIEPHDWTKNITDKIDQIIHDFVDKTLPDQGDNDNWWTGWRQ
The experiment can be described thus: ELISA on plates coated with purified full-length Zaire ebolavirus GP, A450. For orientation: In an ELISA, binding on a coated surface is turned into a signal by an enzyme label.

Experiment [2] concerns the target T2, Zaire ebolavirus secreted GP (sGP) (Zaire ebolavirus, UniProt P60170 33-324).
T2 sequence: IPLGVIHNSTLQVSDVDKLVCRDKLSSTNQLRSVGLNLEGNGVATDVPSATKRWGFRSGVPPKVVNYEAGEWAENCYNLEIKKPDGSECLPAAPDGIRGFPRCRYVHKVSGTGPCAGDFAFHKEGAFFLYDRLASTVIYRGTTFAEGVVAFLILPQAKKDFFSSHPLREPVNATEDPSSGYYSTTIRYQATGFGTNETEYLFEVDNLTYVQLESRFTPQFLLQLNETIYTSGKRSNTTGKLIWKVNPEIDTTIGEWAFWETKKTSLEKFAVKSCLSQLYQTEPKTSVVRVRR
The experiment can be described thus: ELISA on plates coated with purified Zaire ebolavirus sGP, A450.

Experiment [3] has as its target T2, Zaire ebolavirus secreted GP (sGP). As to the kind of experiment: biolayer interferometry, pH 7.4. In general terms: Biolayer interferometry detects binding as a change in optical thickness at a sensor tip.

B1: mAb100 (antibody, V domains shown)
VH: QVQLQESGPGLVKPSDTLSLTCTVSGGSLSSFYWSWIRQPPGKGLEWIGYIYYSGSPNYSPSLESRVTMSVDTTRNQISLKLDSVTAADTAVYYCVRASRSYYWGSYRPTAFDSWGQGTLVTVSS
VL: SYELTQPLSVSVSPGQTAIFTCSGDNLGDKYVCWFQQRPGQSPMLLIYQDNKRPSGIPERFSGSNSGNTATLTISGTQSTDEADYYCQTWDSTVVFGGGTKLTVL
In the case of B1, in experiment [1], the “EC50 (read off the curve)” value is ~0.02 µg/mL.

B2: S1-4-A09 antibody (IgG1 expressed version) (antibody, V domains shown)
VH: QVQLQESGPGLVKPSETLSLTCVVSGGILSSFYWNWIRQPPGKGLEWIGNIYYSGSPNYNASFQSRVAISVDTSKNQISLNLKSVTAADTAMYYCVRASRAYLWGSYRPTALDLWGQGSLVTVSS
VL: SYELTQPPSVSVSPGQTATITCSGDKLGDKYTSWFQQRPGQSPLLVIYQDNKRPSGLPARFSGSNSGNTATLTISGTQAMDEADYLCQVWDSGAVFGGGTKLTVLG
As to B2, the “EC50 (read off the curve)” value in experiment [1] is ~0.03 µg/mL. The binding result in experiment [2] is listed as “no binding”.

B3: S1-4-A09 Fab (Fab, V domains shown)
VH: QVQLQESGPGLVKPSETLSLTCVVSGGILSSFYWNWIRQPPGKGLEWIGNIYYSGSPNYNASFQSRVAISVDTSKNQISLNLKSVTAADTAMYYCVRASRAYLWGSYRPTALDLWGQGSLVTVSS
VL: SYELTQPPSVSVSPGQTATITCSGDKLGDKYTSWFQQRPGQSPLLVIYQDNKRPSGLPARFSGSNSGNTATLTISGTQAMDEADYLCQVWDSGAVFGGGTKLTVL
As for B3, the binding result in experiment [3] is reported as “no binding”.
